The source of these data is patent publication US20220220215A1 (CRESCENDO BIOLOGICS, published 2022).

The target of test [1] is T1, human CD137 expressed on cells (Jurkat human CD137 NF-kB luciferase reporter cells; human CD8+ T cells) (human, UniProt Q07011 24-255). The experiment in a line: cell-based or functional assay.
Test [2] has as its target T2, recombinant Fc-tagged ectodomain of human CD137 (Acro Biosystems 41B-H5258) (human, UniProt Q07011 24-186).
T2 construct: Bought protein; not shown: Fc tag
The experiment in a line: SPR, Biacore 8K, single-cycle kinetics; Fc-tagged ectodomain captured on Protein G chip; 1:1 model. How it is done: (§1) Binding of Humabody® VH constructs was measured using a single-cycle kinetics method using the BIAcore 8K instrument with 90 second sample injections with a sample concentration range of low nanomolar to high nanomolar. […] The Protein G sensor surface was regenerated with a 20 second injection of 10 mM Glycine buffer, pH 1.5 (GE Healthcare BR100354). Data were analysed using a 1:1 binding model in Biacore Insight Evaluation software, including Humabody® VH constructs with two PD-1 arms.

The target of test [3] is T3, recombinant Fc-tagged ectodomain of human PD1 (Acro Biosystems PD1-H5257) (human, UniProt Q15116 25-170).
T3 construct: Bought protein; not shown: Fc tag
The experiment in a line: SPR, Biacore 8K, single-cycle kinetics; Fc-tagged ectodomain captured on Protein G chip; 1:1 model (construct with two PD-1 arms). Here is the method:
as §1

Test [4] has as its target T4, human PD-1 expressed on CHO cells (human, UniProt Q15116 21-288).
T4 construct: also called CHO huPD1; CHO human PD1 cells
The test can be described thus: flow cytometry on CHO huPD1 cells.

Test [5] has as its target T4, human PD-1 expressed on CHO cells. The experiment in a line: FMAT/Mirrorball on CHO huPD1 cells. In outline: (§2)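 His-tagged VH molecules bound to CHO cells expressing human PD-1 or human CD137, with CHO parent cells as control, in PBS pH 7.4, 0.1% BSA, 0.05% sodium azide. Read by FMAT on Mirrorball (ex 488/640 nm); binding taken as FL2 median fluorescence intensity of FL5-gated events.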

The target in test [6] is T5, human CD137 expressed on CHO cells (human, UniProt Q07011 18-255).
T5 construct: also called CHO huCD137; CHO human CD137 cells
The test can be described thus: flow cytometry on CHO huCD137 cells.

Test [7] has as its target T5, human CD137 expressed on CHO cells. The experiment in a line: FMAT/Mirrorball on CHO huCD137 cells. In a few lines:
as §2

In test [8] the target is T1, human CD137 expressed on cells (Jurkat …). The test can be described thus: cell-based or functional assay. This is another data set of the same source.

B1: TPP-1439 PD138G7(G109D)-6GS-PD138G7(G109D)-6GS-CD137A-7-6GS-HSA2 (bispecific antibody)
chain: EVQLVESGGGVVRPGGSLRLSCAASGFTFDDYAMSWVRQAPGKGLEWVSGITWNGGSTGYADSVKDRFTISRDNAKNSLYLQMNSLRAEDTALYYCVRDKYSYAWSYDDFDIWGQGTMVTVSSGGGGSGGGGSGGGGSGGGGSGGGGSGGGGSEVQLVESGGGVVRPGGSLRLSCAASGFTFDDYAMSWVRQAPGKGLEWVSGITWNGGSTGYADSVKDRFTISRDNAKNSLYLQMNSLRAEDTALYYCVRDKYSYAWSYDDFDIWGQGTMVTVSSGGGGSGGGGSGGGGSGGGGSGGGGSGGGGSEVQLVESGGGLVQPGGSLRLSCAASGFTLSNYWMNWVRQAPGKGLEWVANINQDGSERYYVDSVKGRFTISRDNAKNSLYLQMNSLRAEDTAVYYCARGGEGYGVDHYGLDVSGQGTTVTVSSGGGGSGGGGSGGGGSGGGGSGGGGSGGGGSEVQLVESGGGLVKPGGSLRLSCAASGFTFSNYNMNWVRQAPGKGLEWVSSISSAGTHIYYADSVKGRFTISRDNAKNSLYLQMNSLRAEDTAVYYCARDPHSTGWYKDFDYWGQGTLVTVSS
notes: Single-chain fusion of four VH single domains, two PD-1 arms
On to B1, for which the “Jurkat-CD137/CHO-PD-1 Reporter Assay EC50” value in test [1] was 0.0145 nM. Further, in test [2], the Kd was 0.506 nM, the koff is 0.000107 s⁻¹ and the kon turned out to be 800000 M⁻¹ s⁻¹. Also, in test [3], the dissociation constant (Kd) is 0.0683 nM, the koff was found to be 5.12e-05 s⁻¹ and the kon was determined as 750000 M⁻¹ s⁻¹.

B2: TPP-1027: CD137A -6GS-HSA2-6GS-PD138G7(G109D)-His (bispecific antibody)
chain: EVQLVESGGGLVQPGGSLRLSCAASGFTLSNYWMNWVRQAPGKGLEWVANINQDGSERYYVDSVKGRFTISRDNAKNSLYLQMNSLRAEDTAVYYCARGGEGYGVDHYGLDVSGQGTTVTVSSGGGGSGGGGSGGGGSGGGGSGGGGSGGGGSEVQLVESGGGLVKPGGSLRLSCAASGFTFSNYNMNWVRQAPGKGLEWVSSISSAGTHIYYADSVKGRFTISRDNAKNSLYLQMNSLRAEDTAVYYCARDPHSTGWYKDFDYWGQGTLVTVSSGGGGSGGGGSGGGGSGGGGSGGGGSGGGGSEVQLVESGGGVVRPGGSLRLSCAASGFTFDDYAMSWVRQAPGKGLEWVSGITWNGGSTGYADSVKDRFTISRDNAKNSLYLQMNSLRAEDTALYYCVRDKYSYAWSYDDFDIWGQGTMVTVSSAAAHHHHHH
notes: Single-chain VH fusion (CD137 VH, HSA VH, PD-1 VH), His tag
Regarding B2, the EC50 turned out to be 5.01 nM in test [4], 0.173 nM in test [5], 1.47 nM in test [6] and 0.0672 nM in test [7].

B3: TPP-1438 CD137A-6GS-HSA2-6GS-PD138G7(G109D)-6GS-PD138G7(G109D) (bispecific antibody)
chain: EVQLVESGGGLVQPGGSLRLSCAASGFTLSNYWMNWVRQAPGKGLEWVANINQDGSERYYVDSVKGRFTISRDNAKNSLYLQMNSLRAEDTAVYYCARGGEGYGVDHYGLDVSGQGTTVTVSSGGGGSGGGGSGGGGSGGGGSGGGGSGGGGSEVQLVESGGGLVKPGGSLRLSCAASGFTFSNYNMNWVRQAPGKGLEWVSSISSAGTHIYYADSVKGRFTISRDNAKNSLYLQMNSLRAEDTAVYYCARDPHSTGWYKDFDYWGQGTLVTVSSGGGGSGGGGSGGGGSGGGGSGGGGSGGGGSEVQLVESGGGVVRPGGSLRLSCAASGFTFDDYAMSWVRQAPGKGLEWVSGITWNGGSTGYADSVKDRFTISRDNAKNSLYLQMNSLRAEDTALYYCVRDKYSYAWSYDDFDIWGQGTMVTVSSGGGGSGGGGSGGGGSGGGGSGGGGSGGGGSEVQLVESGGGVVRPGGSLRLSCAASGFTFDDYAMSWVRQAPGKGLEWVSGITWNGGSTGYADSVKDRFTISRDNAKNSLYLQMNSLRAEDTALYYCVRDKYSYAWSYDDFDIWGQGTMVTVSS
notes: as for B1
Take B3: the “Jurkat-CD137/CHO-PD-1 Reporter Assay EC50” value in test [1] is 0.00466 nM. Besides, in test [2], the Kd amounted to 0.62 nM, the koff came out at 0.00011 s⁻¹ and the kon stood at 500000 M⁻¹ s⁻¹. Moreover, in test [3], the Kd was determined as 0.0951 nM, the koff was determined as 5.02e-05 s⁻¹ and the kon came out at 527000 M⁻¹ s⁻¹.

B4: TPP-1028: CD137A -6GS-HSA3-6GS-PD138G7(G109D)-His (bispecific antibody)
chain: EVQLVESGGGLVQPGGSLRLSCAASGFTLSNYWMNWVRQAPGKGLEWVANINQDGSERYYVDSVKGRFTISRDNAKNSLYLQMNSLRAEDTAVYYCARGGEGYGVDHYGLDVSGQGTTVTVSSGGGGSGGGGSGGGGSGGGGSGGGGSGGGGSEVQLLESGGGLVKPGGSLRLSCAASGFTVSSYTMNWVRQAPGKGLEWVSSISSSGRYIYYADSVKGRFTISRDNAKNSLYLQMNSLRAEDTAVYYCARDPRMVGNPHEFDIWGQGTMVTVSSGGGGSGGGGSGGGGSGGGGSGGGGSGGGGSEVQLVESGGGVVRPGGSLRLSCAASGFTFDDYAMSWVRQAPGKGLEWVSGITWNGGSTGYADSVKDRFTISRDNAKNSLYLQMNSLRAEDTALYYCVRDKYSYAWSYDDFDIWGQGTMVTVSSAAAHHHHHH
notes: as for B2
With B4, the EC50 in test [4] amounted to 22.7 nM; in test [5], 0.583 nM; in test [6], 1.99 nM; in test [7], 0.151 nM.

B5: TPP-801 PSMA-6GS-CD137-6GS-HSA (bispecific antibody)
chain: EVQLVESGGGVVQPGRSLRLSCAASGFSFSGYGMHWVRQAPGKGLEWVAYISYDGSNKYYADSVKGRFTISRDNSKNTLYLQMNSLRAEDTAVYYCAKDPAWGLRLGESSSYDFDIWGQGTMVTVSSGGGGSGGGGSGGGGSGGGGSGGGGSGGGGSEVQLVESGGGVVQPGGSLRLSCAASGFTFSNYGMHWVRQAPGKGLEWVAVISNDGNTKTYADSVKGRFTISRDNSKNTLYLQMNSLRAEDTAVYYCAQDETTTVTASYYFDYWGQGTLVTVSSGGGGSGGGGSGGGGSGGGGSGGGGSGGGGSEVQLVESGGGLVKPGGSLRLSCAASGFTFSNYNMNWVRQAPGKGLEWVSSISSAGTHIYYADSVKGRFTISRDNAKNSLYLQMNSLRAEDTAVYYCARDPHSTGWYKDFDYWGQGTLVTVSS
Take B5: the “Jurkat-CD137/CHO-PSMA Reporter Assay EC50” value in test [8] is 1.3 nM.

B6: TPP-973: CD137A -6GS-PDA2-6GS-HSA2-His (bispecific antibody)
chain: EVQLVESGGGLVQPGGSLRLSCAASGFTLSNYWMNWVRQAPGKGLEWVANINQDGSERYYVDSVKGRFTISRDNAKNSLYLQMNSLRAEDTAVYYCARGGEGYGVDHYGLDVSGQGTTVTVSSGGGGSGGGGSGGGGSGGGGSGGGGSGGGGSEVQLVESGGGVVRPGGSLRLSCAASGFTFDDYAMSWVRQAPGKGLEWVSGITWNAGSTGYADSVKGRFTISRDNAKNSLYLQMNSLRAEDTALYYCVRDKYSYAWSYDDFDIWGQGTMVTVSSGGGGSGGGGSGGGGSGGGGSGGGGSGGGGSEVQLVESGGGLVKPGGSLRLSCAASGFTFSNYNMNWVRQAPGKGLEWVSSISSAGTHIYYADSVKGRFTISRDNAKNSLYLQMNSLRAEDTAVYYCARDPHSTGWYKDFDYWGQGTLVTVSSAAAHHHHHH
notes: Single-chain VH fusion (CD137 VH, PD-1 VH, HSA VH), His tag
As for B6, the EC50 in test [4] worked out at 108 nM; in test [5], 0.481 nM; in test [6], 0.595 nM; in test [7] it was 0.0781 nM.

B7: TPP-799 PSMA-6GS-CD137-6GS-HSA (bispecific antibody)
chain: EVQLVESGGGVVQPGRSLRLSCAASGFSFSGYGMHWVRQAPGKGLEWVAYISYDGSNKYYADSVKGRFTISRDNSKNTLYLQMNSLRAEDTAVYYCAKDPAWGLRLGESSSYDFDIWGQGTMVTVSSGGGGSGGGGSGGGGSGGGGSGGGGSGGGGSEVQLVESGGGVVQPGGSLRLSCAASGFTFSNYGMHWVRQAPGKGLEWVAVISNDGNTKTYADSVKGRFTISRDNSKNTLYLQMNSLRAEDTAVYYCAQDETTTVTASYYFDYWGQGTLVTVSSGGGGSGGGGSGGGGSGGGGSGGGGSGGGGSEVQLVESGGGLVQPGRSLRLSCAASGFTFHHYAMHWVRQAPGKGLEWVSGISWNGNKITYADSVKGRFTISRDNAKNSLYLQMNSLRAEDTALYYCVRDSSLFIVGAPTFEHWGRGTLVTVSS
Take B7: the “Jurkat-CD137/CHO-PSMA Reporter Assay EC50” value in test [8] stood at 5.6 nM.
